Results published in patent US20060223158.

Target: T1, purified DARPP-32
T1 sequence (Q9UD71 1-204, species assumed, looked up): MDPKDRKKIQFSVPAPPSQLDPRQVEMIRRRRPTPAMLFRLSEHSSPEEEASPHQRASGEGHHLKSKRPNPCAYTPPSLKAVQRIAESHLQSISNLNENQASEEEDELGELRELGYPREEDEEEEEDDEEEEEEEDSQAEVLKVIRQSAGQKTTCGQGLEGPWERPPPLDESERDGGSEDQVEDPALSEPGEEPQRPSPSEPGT

B1: Myc-tagged MM2-CK1ε (S323A/T325A/T334A/T337A/S368A/S405A/T407A/S408A), expressed in N2a cells from pCS-Myc-MM2-CK1ε (protein)
chain: MELRVGNKYRLGRKIGSGSFGDIYLGANIASGEEVAIKLECVKTKHPQLHIESKFYKMMQGGVGIPSIKWCGAEGDYNVMVMELLGPSLEDLFNFCSRKFSLKTVLLLADQMISRIEYIHSKNFIHRDVKPDNFLMGLGKKGNLVYIIDFGLAKKYRDARTHQHIPYRENKNLTGTARYASINTHLGIEQSRRDDLESLGYVLMYFNLGSLPWQGLKAATKRQKYERISEKKMSTPIEVLCKGYPSEFSTYLNFCRSLRFDDKPDYSYLRQLFRNLFHRQGFSYDYVFDWNMLKFGAARNPEDVDRERREHEREERMGQLRGAAARALPPGPPAGAAANRLRSAAEPVASTPASRIQPAGNTSPRAIARVDRERKVSMRLHRGAPANVSSSDLTGRQEVSRIPAAQAAVPFDHLGK
With B1 the “kinase activity of the immunoprecipitated enzyme with DARPP-32 as substrate, against HA-CK1ε” value was “approximately 2-fold more active than HA-CK1ε in the absence of DHPG”.
